Measurements: the supplement of paper PMC7877785
± gives the uncertainty stated by the source.

Assay: self-splicing fitness, log relative to wild type (ln ratio); higher = more splicing; Tetrahymena group I intron in knt gene, E. coli kanamycin selection, DiMSum; sequences stand for … in CUCUCU…GGAGGGAAAAGUUAUCAGGCAUGCACCUGGUAGCUAGUCUUUAAACCAAUAGAUUGCAUCGGUUUAAAAGGCAAGACCGUCAAAUUGCGGGAAAGGGGUCAACAGCCGUUCAGUACCAAGUCUCAGGGGAAACUUUGAGAUGGCCUUGCAAAGGGUAUGGUAAUAAGCUGACGGACAUGGUCCUAACCACGCAGCCAAGUCCUAAGUCAACAGAUCUUCUGUUGAUAUGGAUGCAGUUCACAGACUAAAUGUCGGUCGGGGAAGAUGUAUUCUUCUCAUAAGAUAUAGUCGGACCUCUCCUUAAUGGGAGCUAGCGGAUGAAGUGAUGCAACACUGGAGCCGCUGGGAACUAAUUUGUAUGCGAAAGUAUAUUGAUUAGUUUUGGAGUACUCGUGGUCG
Outline: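 The eight P1ex-region nucleotides of an intron in the knt kanamycin-resistance gene on pET-22b(+) were all randomised and the library put into E. coli BL21(DE3). Six replicate transformations were grown overnight at 37°C or 30°C on LB agar with or without 25 μg/mL kanamycin, together with 100 μg/mL carbenicillin, 50 μM IPTG and 0.2% rhamnose. Colonies were pooled and amplicon-sequenced on an Illumina HiSeq 2500. Fitness from DiMSum is the error-weighted combination of wild-type-normalised replicate fold changes, kanamycin over none.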

Sequence | self-splicing fitness (ln) (30 °C) | self-splicing fitness (ln) (37 °C)
GUCAAGCAAUAUUACGUCUA | -1.94 ± 0.1 | -0.679 ± 0.079
UUCAAGCAAUAUUACGGCUA | -0.138 ± 0.094 | -0.12 ± 0.087
UGGCAGCAAUAUUACGGCUA | -0.191 ± 0.15 | -0.128 ± 0.19
UAUCAGCAAUAUUACGGCUC | -1.86 ± 0.17 | -0.563 ± 0.18
UCUAAGCAAUAUUACGCCCA | -1.48 ± 0.15 | -0.486 ± 0.17
CGCUAGCAAUAUUACGGCCG | -1.19 ± 0.17 | -1.11 ± 0.14
AGGUAGCAAUAUUACGUCCA | -0.144 ± 0.015 | -0.214 ± 0.035
ACACAGCAAUAUUACGAGUU | -3.49 ± 0.14 | -2.18 ± 0.14
CGCAAGCAAUAUUACGGCUC | -1.94 ± 0.14 | -1.43 ± 0.15
GCACAGCAAUAUUACGCCUG | -1.28 ± 0.087 | -0.89 ± 0.1
CCUCAGCAAUAUUACGGAGU | -2.26 ± 0.089 | -1.03 ± 0.09
CGGAAGCAAUAUUACGUCGG | -0.77 ± 0.064 | 0.0281 ± 0.099
CCACAGCAAUAUUACGAGUG | -1.31 ± 0.057 | 0.0708 ± 0.062
GUGGAGCAAUAUUACGCUGG | -3.52 ± 0.37 | -2.41 ± 0.33
AGCCAGCAAUAUUACGCUUC | -3.53 ± 0.22 | -3.48 ± 0.29
GAAGAGCAAUAUUACGGUCC | -2.17 ± 0.26 | -2.32 ± 0.33
GCGUAGCAAUAUUACGCUGA | – | -3.19 ± 0.3
ACCCAGCAAUAUUACGCGCG | -1.66 ± 0.077 | -0.872 ± 0.097
CCCUAGCAAUAUUACGACAG | -2.34 ± 0.13 | -3.3 ± 0.29
AGUCAGCAAUAUUACGUGGC | -2.31 ± 0.16 | -2.21 ± 0.15
UUGUAGCAAUAUUACGGCUG | -2.35 ± 0.23 | -0.373 ± 0.22
CGCCAGCAAUAUUACGAAUC | -2.75 ± 0.16 | -2.92 ± 0.26
AGUCAGCAAUAUUACGGCCG | -1.28 ± 0.11 | -0.527 ± 0.085
GGUGAGCAAUAUUACGCUAC | -2.34 ± 0.2 | –
AGUAAGCAAUAUUACGGUAA | -2.63 ± 0.28 | -1.68 ± 0.15
GGUCAGCAAUAUUACGUCCG | -0.0947 ± 0.13 | -0.124 ± 0.19

Sequence | self-splicing fitness (ln) (30 °C) | self-splicing fitness (ln) (37 °C)
GCAAAGCAAUAUUACGGAAA | -1.88 ± 0.18 | -1.66 ± 0.19
UUGCAGCAAUAUUACGAGCA | -2.35 ± 0.17 | -0.7 ± 0.11
UCGAAGCAAUAUUACGACCA | -1.16 ± 0.15 | -1.09 ± 0.18
CAAAAGCAAUAUUACGGCCC | -2.01 ± 0.31 | -1.06 ± 0.3
GGGCAGCAAUAUUACGCCUA | -0.197 ± 0.12 | 0.428 ± 0.14
UAAGAGCAAUAUUACGGCAU | -2.3 ± 0.39 | -1 ± 0.3
GGCAAGCAAUAUUACGACGA | -1.37 ± 0.099 | -0.167 ± 0.11
UGCGAGCAAUAUUACGUUCG | – | -1.25 ± 0.34
GUCUAGCAAUAUUACGUUGG | -3.01 ± 0.15 | -1.86 ± 0.14
UUAUAGCAAUAUUACGCGUC | – | -1.11 ± 0.41
GUCAAGCAAUAUUACGAGGG | -4.08 ± 0.42 | -3.38 ± 0.3
AGGGAGCAAUAUUACGAUGG | – | -1.29 ± 0.32
GCGGAGCAAUAUUACGAUGG | -1.16 ± 0.26 | -1.02 ± 0.32
AACAAGCAAUAUUACGAACU | -0.328 ± 0.052 | 0.146 ± 0.084
UUGAAGCAAUAUUACGUCGG | 0.235 ± 0.075 | -0.024 ± 0.084
AAGCAGCAAUAUUACGAUAC | -2.7 ± 0.14 | -1.7 ± 0.18
AUCGAGCAAUAUUACGUCUC | -3.13 ± 0.22 | -2.18 ± 0.33
GUAUAGCAAUAUUACGGCAG | -4.25 ± 0.42 | -1.5 ± 0.25
CUACAGCAAUAUUACGGCGC | -3.96 ± 0.29 | -1.68 ± 0.39
CUGCAGCAAUAUUACGCUUU | -4.46 ± 0.28 | -2.6 ± 0.26
CAAUAGCAAUAUUACGAGAC | -4.17 ± 0.36 | -2.1 ± 0.27
UUAAAGCAAUAUUACGACUG | -0.0352 ± 0.08 | 0.184 ± 0.12
AGGUAGCAAUAUUACGUCAC | -3.764 ± 0.036 | -2.23 ± 0.042
GCGGAGCAAUAUUACGAUUC | -1.32 ± 0.12 | -1.09 ± 0.15
AUAAAGCAAUAUUACGUAGG | -2.93 ± 0.12 | -1.51 ± 0.15
CGGUAGCAAUAUUACGCGGG | -2.49 ± 0.18 | -1.88 ± 0.24

Sequence | self-splicing fitness (ln) (30 °C) | self-splicing fitness (ln) (37 °C)
UCAAAGCAAUAUUACGCCAC | -2.5 ± 0.24 | -2.07 ± 0.38
UUGCAGCAAUAUUACGAGUC | -3.64 ± 0.2 | -2.64 ± 0.28
CCCCAGCAAUAUUACGAUAC | -3.82 ± 0.27 | -2.85 ± 0.28
CAGUAGCAAUAUUACGCGAA | -4.22 ± 0.43 | -2.8 ± 0.31
CCACAGCAAUAUUACGUAUC | -2.59 ± 0.16 | -2 ± 0.22
UGAGAGCAAUAUUACGCGGU | – | -0.929 ± 0.39
CGCGAGCAAUAUUACGGACG | – | -1.75 ± 0.42
UGUGAGCAAUAUUACGUGAU | -5.21 ± 0.36 | –
AUGGAGCAAUAUUACGGCUC | -2.53 ± 0.45 | –
UAUAAGCAAUAUUACGGCGG | 0.309 ± 0.2 | -0.0854 ± 0.25
UGCAAGCAAUAUUACGGAGG | -3.21 ± 0.19 | -1.42 ± 0.16
UCGUAGCAAUAUUACGAGGA | -3.72 ± 0.39 | -2.58 ± 0.29
GAUCAGCAAUAUUACGAUGG | -1.22 ± 0.096 | 0.121 ± 0.14
ACCAAGCAAUAUUACGACUG | -1.11 ± 0.062 | -1.07 ± 0.099
UUCAAGCAAUAUUACGGACA | -0.496 ± 0.12 | 0.121 ± 0.11
UUAGAGCAAUAUUACGUGCU | – | -1.79 ± 0.4
GCCAAGCAAUAUUACGAAAC | -2.15 ± 0.14 | -0.23 ± 0.14
GAAAAGCAAUAUUACGUGCU | -1.8 ± 0.098 | -0.978 ± 0.1
GAGCAGCAAUAUUACGGGUG | -4.47 ± 0.22 | -2.17 ± 0.15
UGAGAGCAAUAUUACGUCAU | -1.71 ± 0.26 | –
CGCAAGCAAUAUUACGAUUC | -3.18 ± 0.18 | -2.17 ± 0.15
ACGAAGCAAUAUUACGCGAC | -3.14 ± 0.2 | -1.78 ± 0.19
GGCCAGCAAUAUUACGUCCA | -1.61 ± 0.17 | -0.128 ± 0.15
CGGUAGCAAUAUUACGCCAA | -2.52 ± 0.21 | -2.6 ± 0.3
UAACAGCAAUAUUACGGCUC | -1.77 ± 0.1 | -0.836 ± 0.14
CGCUAGCAAUAUUACGAUGA | -1.14 ± 0.1 | -0.401 ± 0.087
